Laboratory results published in US20240043568A1 (KEYMED BIOSCIENCES, published 2024).

Legend:
[1] = molecular target: T1, human GPC3 on cells (human, UniProt P51654 25-563); test: flow cytometry, HepG2 cells
T1 construct: whole, on cells; One molecule is used for both CHO-hGPC3 transfectants and GPC3+ HepG2 cells; The assay field names the cell; also called CHO-hGPC3 (clone 2B10); CHO-human GPC3
Protocol: HepG2 cells in the logarithmic growth phase were taken, added with 200 μg/mL of murine IgG (Jackson ImmunoResearch, 115-005-03), and blocked on an ice bath for 30 min. The cells were adjusted to 5×10⁵ cells/mL with 4% calf serum and added to a 96-well U-shaped plate at 100 μl/well. The centrifugation was performed at 300 g for 5 min. The supernatant was discarded. 100 μL of gradient diluted antibody (initial concentration: 1800 nM, 3-fold dilution, 10 gradients) was added to each well, and incubated at 4° C. for 60 min. The primary antibody was washed, added with Alexa Fluro647 labeled goat anti-human IgG Fc (1:300 dilution) 50 μL/well, and incubated on ice for 20 min. After washing once, PI solution was added at 50 μL/well. Incubation was performed for 5 min before detection by flow cytometry. The GPC3×CD3κλ bispecific antibody can bind to GPC3+ tumor cell HepG2 with high affinity.

[2] = molecular target: T2, human CD3 on T cells (human, UniProt P07766 23-207); test: flow cytometry, Jurkat cells
T2 construct: whole, on cells; The target is the native CD3 complex on cells; The recombinant antigen used elsewhere is the εγ heterodimer; also called CD3 on Jurkat cells; CD3 on human peripheral blood CD4+ and CD8+ T cells
Protocol: Jurkat cells in the logarithmic growth phase were taken, added with 200 μg/mL of murine IgG (Jackson ImmunoResearch, 115-005-03), and incubated on ice for 30 minutes. The cells were adjusted to 5×10⁵ cells/mL with 4% calf serum and added to a 96-well U-shaped plate at 100 μl/well. The centrifugation was performed at 300 g. The supernatant was discarded. 100 μL of gradient diluted antibody (initial concentration: 1800 nM, 3-fold dilution, 10 gradients) was added to each well, and incubated at 4° C. for 60 min. The secondary antibody Alexa Fluro647 labeled goat anti-human IgG Fc (1:300 dilution) was added at 50 μL/well and incubated on ice for 20 min. After washing once, PI solution was added at 50 μL/well. Incubation was performed for 5 min before detection by flow cytometry (BD C6).

[3] = molecular target: T3, recombinant human GPC3 protein (human, UniProt P51654 25-563); test: SPR (Biacore T200), antibody on Protein A chip, GPC3 as analyte
T3 construct: also called human GPC3 full-length protein; recombinant GPC3 protein
Protocol: (§1) The antibodies with a concentration of 1 μg/ml were captured on the Protein A chip (GE healthcare). Different concentrations of recombinant human or cynomolgus monkey GPC3 protein (5 μg/ml as the initial concentration, 2-fold gradient, a total of 6 concentration points) as the analyte was flowed through the chip at a flow rate of 30 μL/min, with an association time of 120 seconds, and a dissociation time of 400 seconds. The changes in the SPR signal during the association and dissociation of the protein were recorded. The kinetic constants were obtained by fitting with 1:1 binding model using Biacore T200 evaluation software.

[4] = molecular target: recombinant cynomolgus monkey GPC3 full-length protein (cynomolgus monkey, UniProt A0A2K5VK50 24-558); test: as above
Protocol: as §1

[5] = molecular target: T4, FcγRI with His tag (UniProt P12314 16-288); test: SPR, His-tagged FcγRI captured by anti-His antibody on the chip, antibody as analyte [row FcγRI, column GPC3×CD3 κλ002]
T4 construct: Bought protein; also called FcγRI (Sino Biological #10256-H08H)
T4 sequence (P12314 16-288 limits assumed): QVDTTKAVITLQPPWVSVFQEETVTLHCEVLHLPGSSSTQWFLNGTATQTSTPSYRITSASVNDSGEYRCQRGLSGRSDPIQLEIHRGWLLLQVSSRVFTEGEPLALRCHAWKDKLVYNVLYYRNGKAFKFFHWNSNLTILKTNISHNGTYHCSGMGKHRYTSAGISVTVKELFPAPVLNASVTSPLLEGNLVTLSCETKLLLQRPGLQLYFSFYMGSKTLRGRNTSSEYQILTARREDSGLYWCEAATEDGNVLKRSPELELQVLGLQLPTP
Protocol: (§2) 50 μg/mL His-Tag antibodies were conjugated to a CMS chip through amino groups, and recombinant proteins FcγRI, FcγRIIAH131, and FcγRIIIAV158 with His tags (Sino Biological, #10256-H08H/10374-H08H1/10389-H08H1) were respectively captured for a capture time of 40 s at a flow rate of 10 μL/min. After the baseline was stable, the gradient-diluted antibody (the initial concentration of 37.5 μg/mL, 2-fold dilution) flowed through the chip at a flow rate of 30 μL/min, with a binding time of 120 s and a dissociation time of 200 s. The affinity constants were obtained by fitting them with Biacore evaluation software. It can be seen from FIG. 22 that the GPC3×CD3κλ bispecific antibody has no binding to FcγRI, FcγRIIAH131, and FcγRIIIAV158; The wild-type IgG4 control antibody can bind to FcγRI with high affinity and weakly bind to Fcγ RIIAH131.

[6] = molecular target: T5, FcγRIIAH131 with His tag (UniProt P12318 34-218); test: SPR, His-tagged FcγRIIAH131 captured by anti-His antibody on the chip, antibody as analyte [row FcγRIIAH131, column GPC3×CD3 κλ002]
T5 construct: Bought protein; also called Fcγ RIIAH131 (Sino Biological #10374-H08H1)
T5 sequence (looked up): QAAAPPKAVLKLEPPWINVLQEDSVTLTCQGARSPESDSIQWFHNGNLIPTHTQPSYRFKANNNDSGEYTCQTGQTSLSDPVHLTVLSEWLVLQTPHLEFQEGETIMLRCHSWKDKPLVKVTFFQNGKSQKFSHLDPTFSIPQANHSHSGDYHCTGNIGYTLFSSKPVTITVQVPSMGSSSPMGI
Protocol: as §2

[7] = molecular target: T6, FcγRIIIAV158 with His tag (UniProt P08637 17-208); test: SPR, His-tagged FcγRIIIAV158 captured by anti-His antibody on the chip, antibody as analyte [row FcγRIIIAV158, column GPC3×CD3 κλ002]
T6 construct: Bought protein; also called FcγRIIIAV158 (Sino Biological #10389-H08H1)
T6 sequence (P08637 17-208 F176V limits assumed): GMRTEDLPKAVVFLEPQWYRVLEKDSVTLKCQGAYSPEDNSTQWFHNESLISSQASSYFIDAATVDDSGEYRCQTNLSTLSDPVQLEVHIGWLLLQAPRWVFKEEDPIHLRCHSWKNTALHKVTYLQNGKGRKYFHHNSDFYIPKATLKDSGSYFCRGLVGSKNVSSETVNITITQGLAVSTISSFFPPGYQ
Protocol: as §2

[8] = molecular target: T4, FcγRI with His tag; test: SPR, His-tagged FcγRI captured by anti-His antibody on the chip, antibody as analyte [row FcγRI, column GPC3×CD3 κλ003]
Protocol: as §2

[9] = molecular target: T5, FcγRIIAH131 with His tag; test: SPR, His-tagged FcγRIIAH131 captured by anti-His antibody on the chip, antibody as analyte [row FcγRIIAH131, column GPC3×CD3 κλ003]
Protocol: as §2

[10] = molecular target: T6, FcγRIIIAV158 with His tag; test: SPR, His-tagged FcγRIIIAV158 captured by anti-His antibody on the chip, antibody as analyte [row FcγRIIIAV158, column GPC3×CD3 κλ003]
Protocol: as §2

B1: GPC3×CD3 κλ002 (bispecific antibody, human IgG4 S228P, kappa, lambda)
light 1: DVVMTQSPLSLPVTPGEPASISCRSSQSIVHSNGNTYLEWYLKKPGQSPQLLIYKVSNRFSGVPDRFSGSGSGTDFTLKISRVEAEDVGVYFCLQVTHVPLTFGQGTKLEIKRTVAAPSVFIFPPSDEQLKSGTASVVCLLNNFYPREAKVQWKVDNALQSGNSQESVTEQDSKDSTYSLSSTLTLSKADYEKHKVYACEVTHQGLSSPVTKSFNRGEC
heavy 1: QVQLVQSGAEVKKPGSSVKVSCKASGYTFADYEIHWVREAPGQGLEWMGAIHPGSGGTAYAQKFQGRVTLTADESSTTAYMELSSLRSEDTAVYYCTRYYSFAYWGQGTLVTVSSASTKGPSVFPLAPCSRSTSESTAALGCLVKDYFPEPVTVSWNSGALTSGVHTFPAVLQSSGLYSLSSVVTVPSSSLGTKTYTCNVDHKPSNTKVDKRVESKYGPPCPPCPAPEFEGGPSVFLFPPKPKDTLMISRTPEVTCVVVDVSQEDPEVQFNWYVDGVEVHNAKTKPREEQFNSTYRVVSVLTVLHQDWLNGKEYKCKVSNKGLASSIEKTISKAKGQPREPQVCTLPPSQEEMTKNQVSLSCAVKGFYPSDIAVEWESNGQPENNYKTTPPVLDSDGSFFLVSKLTVDKSRWQEGNVFSCSVMHEALHNHYTQKSLSLSLGK
light 2: QAVVTQEPSLTVSPGGTVTLTCRSSTGAVTTSNYANWVQEKPGQAPRGLIGGTNKRAPWTPARFSGSLLGGKAALTITGAQAEDEAEYYCVLWYSNLWVFGGGTKLTVLGQPKAAPSVTLFPPSSEELQANKATLVCLISDFYPGAVTVAWKADSSPVKAGVETTTPSKQSNNKYAASSYLSLTPEQWKSHRSYSCQVTHEGSTVEKTVAPTECS
heavy 2: EVQLVESGGGLVQPGGSLRLSCAASGFTFNTYAMNWVRKAPGKGLEWVGRIRSKYNNYATYYADSVKDRFTISRDDSKNSLYLQMNSLKTEDTAVYYCVRHGNFGNSYVSWFAYWGQGTLVTVSSASTKGPSVFPLAPCSRSTSESTAALGCLVKDYFPEPVTVSWNSGALTSGVHTFPAVLQSSGLYSLSSVVTVPSSSLGTKTYTCNVDHKPSNTKVDKRVESKYGPPCPPCPAPEFEGGPSVFLFPPKPKDTLMISRTPEVTCVVVDVSQEDPEVQFNWYVDGVEVHNAKTKPREEQFNSTYRVVSVLTVLHQDWLNGKEYKCKVSNKGLASSIEKTISKAKGQPREPQVYTLPPCQEEMTKNQVSLWCLVKGFYPSDIAVEWESNGQPENNYKTTPPVLDSDGSFFLYSKLTVDKSRWQEGNVFSCSVMHEALHNHYTQKSLSLSLGK
notes: also called GPC3 x CD3 κλ002; GPC3×CD3κλ bispecific antibody
EC50 [1]: 2.1 nM | EC50 [2]: 36 nM | Kd [3]: 1.35 nM | Kd [4]: 1.6 nM | binding result [5]: no binding | binding result [6]: no binding | binding result [7]: no binding

B2: GPC3×CD3 κλ003 (bispecific antibody, human IgG4 S228P, kappa, lambda)
light 1: DVVMTQSPLSLPVTPGEPASISCRSSQSIVHSNGNTYLEWYLKKPGQSPQLLIYKVSNRFSGVPDRFSGSGSGTDFTLKISRVEAEDVGVYFCLQVTHVPLTFGQGTKLEIKRTVAAPSVFIFPPSDKKLKSGTASVVCLLNNFYPREAKVQWKVDNALQSGNSQESVTEQDSKDSTYSLSSTLTLSKADYEKHKVYACEVTHQGLSSPVTKSFNRGEC
heavy 1: QVQLVQSGAEVKKPGSSVKVSCKASGYTFADYEIHWVREAPGQGLEWMGAIHPGSGGTAYAQKFQGRVTLTADESSTTAYMELSSLRSEDTAVYYCTRYYSFAYWGQGTLVTVSSASTKGPSVFPLAPCSRSTSESTAALGCLVEDYFPEPVTVSWNSGALTSGVHTFPAVLQSSGLYSLSSVVTVPSSSLGTKTYTCNVDHKPSNTKVDERVESKYGPPCPPCPAPEFEGGPSVFLFPPKPKDTLMISRTPEVTCVVVDVSQEDPEVQFNWYVDGVEVHNAKTKPREEQFNSTYRVVSVLTVLHQDWLNGKEYKCKVSNKGLASSIEKTISKAKGQPREPQVCTLPPSQEEMTKNQVSLSCAVKGFYPSDIAVEWESNGQPENNYKTTPPVLDSDGSFFLVSKLTVDKSRWQEGNVFSCSVMHEALHNHYTQKSLSLSLGK
light 2: QAVVTQEPSLTVSPGGTVTLTCRSSTGAVTTSNYANWVQEKPGQAPRGLIGGTNKRAPWTPARFSGSLLGGKAALTITGAQAEDEAEYYCVLWYSNLWVFGGGTKLTVLGQPKAAPSVTLFPPSSEELQANKATLVCLISDFYPGAVTVAWKADSSPVKAGVETTTPSKQSNNKYAASSYLSLTPEQWKSHRSYSCQVTHEGSTVEKTVAPTECS
heavy 2: EVQLVESGGGLVQPGGSLRLSCAASGFTFNTYAMNWVRKAPGKGLEWVGRIRSKYNNYATYYADSVKDRFTISRDDSKNSLYLQMNSLKTEDTAVYYCVRHGNFGNSYVSWFAYWGQGTLVTVSSASTKGPSVFPLAPCSRSTSESTAALGCLVKDYFPEPVTVSWNSGALTSGVHTFPAVLQSSGLYSLSSVVTVPSSSLGTKTYTCNVDHKPSNTKVDKRVESKYGPPCPPCPAPEFEGGPSVFLFPPKPKDTLMISRTPEVTCVVVDVSQEDPEVQFNWYVDGVEVHNAKTKPREEQFNSTYRVVSVLTVLHQDWLNGKEYKCKVSNKGLASSIEKTISKAKGQPREPQVYTLPPCQEEMTKNQVSLWCLVKGFYPSDIAVEWESNGQPENNYKTTPPVLDSDGSFFLYSKLTVDKSRWQEGNVFSCSVMHEALHNHYTQKSLSLSLGK
notes: also called GPC3 x CD3 κλ003; GPC3×CD3κλ bispecific antibody
EC50 [1]: 2.5 nM | EC50 [2]: 26 nM | Kd [3]: 2.11 nM | Kd [4]: 1.91 nM | binding result [8]: no binding | binding result [9]: no binding | binding result [10]: no binding
